Measurements as given in article PMC3178039 (Journal of cellular physiology, 2011).

Biological target: the molecule itself
Experiment: SDS-PAGE and immunoblot

B1: intestinal lactoferrin receptor (LfR) (receptor, human (endogenous in Caco-2), UniProt Q8WWA0 19-298, looked up)
chain: TDEANTYFKEWTCSSSPSLPRSCKEIKDECPSAFDGLYFLRTENGVIYQTFCDMTSGGGGWTLVASVHENDMRGKCTVGDRWSSQQGSKAVYPEGDGNWANYNTFGSAEAATSDDYKNPGYYDIQAKDLGIWHVPNKSPMQHWRNSSLLRYRTDTGFLQTLGHNLFGIYQKYPVKYGEGKCWTDNGPVIPVVYDFGDAQKTASYYSPYGQREFTAGFVQFRVFNNERAANALCAGMRVTGCNTEHHCIGGGGYFPEASPQQCGDFSGFDWSGYGTHVGYS
With B1 the “stoichiometry N” value was 3.
